We go through three molecules from patent US20140212436A1 (Xencor, published 2014).

Assay [1] deals with T1, recombinant human FcγRIIb protein (human, UniProt P31994 46-217).
T1 construct: Bought; injected as analyte in Biacore; also called CD32b
T1 sequence (looked up): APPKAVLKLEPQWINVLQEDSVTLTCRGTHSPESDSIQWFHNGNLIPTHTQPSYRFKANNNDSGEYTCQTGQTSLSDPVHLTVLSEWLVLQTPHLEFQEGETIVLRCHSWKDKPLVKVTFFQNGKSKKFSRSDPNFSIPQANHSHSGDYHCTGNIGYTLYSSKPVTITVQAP
Kind of assay: Biacore. On the procedure:
(§1) Variants were tested for receptor affinity using Biacore technology, also referred to as Biacore herein, a surface plasmon resonance (SPR) based technology for studying biomolecular interactions in real time. SPR measurements were performed using a Biacore 3000 instrument (Biacore, Piscataway, N.J.). A […] (Pierce Biotechnology) CM5 biosensor chip (Biacore) was generated using a standard primary amine coupling protocol. All measurements were performed using HBS-EP buffer (10 mM HEPES pH 7.4, 0.15 M NaCl, 3 mM EDTA, 0.005% vol/vol surfactant P20, Biacore). Antibodies at 20 nM or 50 nM in HBS-EP buffer were immobilized on the protein A/G surface and FcγRs were injected. After each cycle, the surface was regenerated by injecting glycine buffer (10 mM, pH 1.5). Data were processed by zeroing time and response before the injection of FcγR and by subtracting appropriate nonspecific signals (response of reference channel and injection of running buffer). Kinetic analyses were performed by global fitting of binding data with a 1:1 Langmuir binding model using BIAevaluation software (Biacore).
DNA encoding the Fc region of IgE, which contains the binding site for the anti-IgE antibodies used, was synthesized (Blue Heron Biotechnologies) and subcloned into the pTT5 vector. […]
On the technique in general: SPR reads the build-up and loss of mass on a sensor chip optically.

In assay [2] the target is T1, recombinant human FcγRIIb protein. Kind of assay: Biacore, antibody captured on protein A. On the procedure:
as §1
(§2) DNA encoding the Fc region of IgE, which contains the binding site for the anti-IgE antibodies used, was synthesized (Blue Heron Biotechnologies) and subcloned into the pTT5 vector. […] SPR measurements were performed using the protein A/antibody capture method described above, except that analyte was either FcγRIIb or the Fc region of IgE. Data acquisition and fitting are as described above.

Assay [3] deals with T2, Fc region of IgE (UniProt P01854-1 105-428, limits assumed).
T2 construct: domain: Fc region of IgE; also called IgE Fc
T2 sequence (P01854 other isoform, or with tags, fused parts or gaps limits assumed): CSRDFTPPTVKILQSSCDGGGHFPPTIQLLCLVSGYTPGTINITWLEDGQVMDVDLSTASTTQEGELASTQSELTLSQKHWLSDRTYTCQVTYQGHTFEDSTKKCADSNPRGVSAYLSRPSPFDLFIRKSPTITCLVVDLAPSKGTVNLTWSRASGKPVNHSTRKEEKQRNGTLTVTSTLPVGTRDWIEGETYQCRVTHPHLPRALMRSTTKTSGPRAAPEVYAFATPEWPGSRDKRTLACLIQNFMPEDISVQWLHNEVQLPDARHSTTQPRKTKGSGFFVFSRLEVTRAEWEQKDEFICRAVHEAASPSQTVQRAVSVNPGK
Briefly: Biacore, antibody captured on protein A, IgE Fc as analyte. As for the experimental part:
as §1, §2

B1: H1L1_MaE11 (novel humanized version of MaE11, anti-IgE antibody) (antibody)
heavy: not shown
light: DIQLTQSPSSLSASVGDRVTITCRASQSVDYDGDSYMNWYQQKPGQPPKLLIYAASYLGSEIPARFSGSGSGTDFTLTISSLQPEDFATYYCQQSHEDPYTFGAGTKLEIKRTVAAPSVFIFPPSDEQLKSGTASVVCLLNNFYPREAKVQWKVDNALQSGNSQESVTEQDSKDSTYSLSSTLTLSKADYEKHKVYACEVTHQGLSSPVTKSFNRGEC
notes: copies: 2 + 2
B1: the Fold in assay [1] turned out to be 1. For the same molecule, the Kd was 2000 nM in assay [2] and 0.061 nM in assay [3].

B2: MaE11_H1L1_IgG1_G236R/L328R (antibody)
heavy: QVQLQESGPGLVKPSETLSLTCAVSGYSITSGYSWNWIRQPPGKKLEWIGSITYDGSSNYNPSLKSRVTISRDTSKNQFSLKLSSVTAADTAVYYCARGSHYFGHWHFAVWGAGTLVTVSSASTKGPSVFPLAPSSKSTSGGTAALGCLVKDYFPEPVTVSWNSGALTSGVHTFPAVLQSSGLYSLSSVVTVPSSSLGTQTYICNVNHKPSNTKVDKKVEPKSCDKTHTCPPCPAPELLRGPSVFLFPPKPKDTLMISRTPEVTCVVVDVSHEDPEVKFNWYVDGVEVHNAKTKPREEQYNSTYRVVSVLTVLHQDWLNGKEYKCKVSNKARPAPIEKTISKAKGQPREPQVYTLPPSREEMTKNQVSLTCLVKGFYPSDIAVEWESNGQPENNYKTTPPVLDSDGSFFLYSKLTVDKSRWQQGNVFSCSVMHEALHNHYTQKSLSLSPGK
light: B1 light
notes: anti-IgE; also called H1L1 MaE11 Fc-KO
On to B2, for which the binding result in assay [2] is “no binding”. The molecule further showed a Kd in assay [3] of 0.064 nM.

B3: MaE11_H1L1_IgG1_S267E/L328F (antibody)
heavy: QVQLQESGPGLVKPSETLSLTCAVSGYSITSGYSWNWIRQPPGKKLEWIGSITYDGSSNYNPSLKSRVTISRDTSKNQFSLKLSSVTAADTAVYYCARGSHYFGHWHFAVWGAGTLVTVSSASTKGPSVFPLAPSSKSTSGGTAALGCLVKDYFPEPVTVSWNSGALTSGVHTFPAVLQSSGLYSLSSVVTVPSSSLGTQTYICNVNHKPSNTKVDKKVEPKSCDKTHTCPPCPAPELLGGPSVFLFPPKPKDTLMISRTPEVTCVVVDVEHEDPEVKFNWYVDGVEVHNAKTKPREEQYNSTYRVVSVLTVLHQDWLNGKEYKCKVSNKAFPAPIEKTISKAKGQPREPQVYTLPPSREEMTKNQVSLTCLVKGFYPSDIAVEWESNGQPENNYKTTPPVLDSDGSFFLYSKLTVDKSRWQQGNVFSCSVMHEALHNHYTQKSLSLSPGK
light: B1 light
notes: anti-IgE
For B3, the Fold in assay [1] was 366. Moreover, the Kd in assay [2] is 5.6 nM; in assay [3] it was 0.063 nM.

As a reminder, the Kd is a measure of binding affinity in units of concentration.
